Source: PMC5628019

Target: MTTR (recombinant monomeric version of TTR), as non-native oligomers (human) (UniProt P02766)

incorporation compared to probe B-1: 90 % less
Substance: VAVHVF (truncated probe B-1, minimal binding competent sequence) (peptide)
